From PMC7797080 (Nucleic Acids Research, 2020)

Molecular target: the molecule itself
Assay: SEC

B1: PSEUDOURIDINE KINASE from Arabidopsis (AtPUKI), native, tag-free (enzyme, Arabidopsis thaliana)
chain: GGGSMEPVIIGALILDVHAKPSTTPISGTTVPGQVLFAPGGVARNVADCIFKLGITPFMIGTLGLDGPANVLLKEWKLSMKGILRREDISTPIVSLVYDTNGEVAAGVAGVDAVENFLTPEWIQRFEYNISSARLLMVDANLSSLALEASCKLAAESSVPVWFEPVSVTKSQRIASIAKYVTIVSPNQDELIAMANALCAKNLFHPFRSDENKLSIEDMFRALKPAILVLLKNGVKVVIVTLGSNGALLCSKGNPKKALNIDRKFLRSGEVFKRVQSVCSPNRFSELGSNRSPSLFAMHFPTIPAKVKKLTGAGDCLVGGTVASLSDGLDLIQSLAVGIASAKAAVESDDNVPPEFKLDLISGDAELVYNGAKMLMVHQSML
  stoichiometry N: 2
